Assay: yeast display, Sf9 membrane polyspecificity reagent, FACS + sequencing; frameworks hold sequencing errors
Procedure, shortened: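 Polyreactivity labels are assigned by the sorting gate from which each nanobody was recovered. The gates were low and high (top ~1%), set on anti-HA fluorescence for expression and streptavidin fluorescence for reagent binding. Before sorting, galactose-induced (36–48 hours) yeast display cells were stained for 1 hour at 4 °C with 10% biotinylated, detergent-solubilized Sf9 membrane reagent.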

Row | Sequence | polyreactivity (PSR sort gate)
1 | HVQLVESGGGLVQAGGSLRESCAASGRTFDDIAMGRYRQAPGKERELVAAINWSGASTYYADSVKGRFTISRDNAKNTVYLQMNSLKPEDTAVYYCAAVFWKSDSAYYEYGYWGQGTQVTVSS | low polyreactivity
2 | QVQLVESGGGLVQAGGSLRLSCAASGRTFRPYAMGWYRQAPGKERELVAAIDSSGTSTYYADSVKGRFTISRDNAKNTVYLKMNSLKPEDTAVYYCAKAWPDHWYSRYDYWGQGTQVTVSS | low polyreactivity
3 | EEELVESGGGIVQAGGSLRLSCAASGFIFGYNAMGWYRQAPGKERELVAAISSGDDTNYADSVKGRFTISRDNAKNTVYLQMNSLKPEDTAVYYCAAEVWTAFTLGSYWSVVDYDYWGQGTQVSVSS | low polyreactivity
4 | QVHLVESGGGLVQAGGSLRLSCAASGLIFYRYAMGWYRQAPGKERELVATISSGGSTNYADSVKGRFTISRDNAKNTVYLQMNSLKPEDTAVYYCAASRWLYYYLFEYWGQGTQGTVSS | high polyreactivity
5 | QVQIVESGGGLVQAGGSLRISCAASGRTFVYNTMGWSRQAPGKERELVAAITDRGTSTFYADSVKGRFTISRDNAKNTVDLQMNSLKPEDTAVYYCAKDWLVTEFDYWAQGTQVTVSS | low polyreactivity
6 | QVQLVESGGRLVQAGGSLRLSCAASGSIFYFNAMGWYRQAPGKERELVATISRRGGSTYYADSVKGRFTISRDNAKKTVYLQMNSLKPEDTAVYYCAADYYTLYPVYIKRYGYWGQGTQVTVSS | high polyreactivity
7 | QVQLVESGGGLVQAGGSLRLSCAASGSIFSQYAMGWYRQAPGKERELVAAISRSGGRTSYADSVKGRFTISRDNAKNTVYLQMNSLKPEDTAVYYCAARGPTNMGYWGQGTQVTVSS | high polyreactivity
8 | QVQLVETRGGLVQAGGSLRLTCAASGRTFEGYAMGWYRQAPGKEREFVAAITDGDSTYYADSVKGRFTISRDNAKNTVYLQMNSLKPEDTAVYYCAADRQTWYWYTAYLKYDYWGQGSQVTVSS | low polyreactivity
9 | HVQLVESGGGLVQARGSLRLSCAASGRTSWYYAMGWYRQAPGKEKELVAAITASGGSTYADSVKGRFTISRDNAKNTVYLEMNSLKPEDTAVYYCAAERPYSRVGYYYWGQGTQVTVSS | high polyreactivity
10 | QVQLVESGGGLDQAGGSLRLSCAASGRTFDFYAMGWYRQAPGKEMELVAAITFSTGSTTYADSVKGRFTISRDNAKNTVYLQMNSLKPEDTAVYYCAADGDGWWWSYVDRYDYWGQGTQVTVSS | low polyreactivity
11 | QVQLVESGGVLVQAGGSLRLICAASGRIFGYYAMGWYRQAPGKERELVAAISNGGSTHYADSVKGRFTISRDNAKNTVYLQMNSLKPEDTAVYFCAAKASRVDWGYGYWGQATQVTVSS | high polyreactivity
12 | QVQLVESGGGLVQAGGSLRLSCAASGGTFVFYAMGWYIQAPGKERELVAAISSAGRTYYADAVKGRFTISRDNAKTTVYLQMNSLKPEETAVYYCAAVSSQYDGRYYYWGQGTQVTVSS | high polyreactivity
13 | QVQLVESGGGLVQPGGSLSLSCAASGLTFYSYAMGWSRQAPGKERELVAAITSSGSITYYADSVKGRFTISRDNAKNTVYLQMNSLTPEDTAVYYCAARPYRVRGQRFEGNYCGQGTQVTVSS | high polyreactivity
14 | QVQLVESGGGLVQAGGSLRLSCAASGRTFYGNAMGWYRQAPGNERELVAAITTGGGNTYYADSVKGRFTISRDNAKNTVYLQMNSLKPDDTAVYYCAAYERKFYTVSRWYKLDYWGQGTQVTVSS | high polyreactivity
15 | QDQLVESGGGLVQAGGSLRLSCAASGFIFARYVMGWYRPAPGKERELVASITGSGVSTYYADSVKGRFTISRDNAKNTVYLQMNSLKPEDTAVYYCATRVYRRYYLNSWYNYWGQGTQVTVSS | high polyreactivity
16 | QVQLVESGGGLVQAGGSLRLSCAASGNIFGENAMGWYRQAPGKERELVAAITRIDGNTYYADSVKGRVTISRDNAKNTVYLQMNSLKPEDTAVYYCATDEPVGRYQHNYYWGQGTQVTVSS | low polyreactivity

Row | Sequence | polyreactivity (PSR sort gate)
17 | QVQLVESGGGLVQAGGSLRLSCAASGRTFRKKAMGWYRRAPGKERELVAAISASGTSTYYADSVKGRFTNSRDNAKISVYLQMISLKPEDTAVYYCAARSYGIYDYWGQGSQVTVSS | high polyreactivity
18 | QVHLVESGGGLVQAGGSLRLSCAASGSIFTQYAMGWYRQAPGKERELVARITGSGGRTYYADSVKGRFTISRDNAKNTVYLQMNSLKPEDTAVYYCNARLYTYGRHQGPDYNYWGQGTQVTVSS | high polyreactivity
19 | QVQLVESGGGLVQAGGSLRLSCAASGRICVYYAMGWYRQAPGKEREFVAAISWSGGSTYYADSVKGRFTISRDNAKNTVYLQMNSLKPEDTAVYYCAADVPWTVYYRWYDYWGQGTLVTVSS | low polyreactivity
20 | QVQLVESGGGLFQAGGSLRLSCAASGSTSIYNAMGWYRQAPGKERELVAAIDVRGGGTYADSVKGRFTISRDNAKNTVYLQMNSMKPEDTAVYYCNADYARYPNGWFRIVGSGYWGQGTQVTVSS | low polyreactivity
21 | QVQLVESGGGLVQAGGSLRLSSAASGSTFIGNAMGWYRQAPGTARELVAAITRSGGSTFYADSVKGRFTISRDNAKNTVYLQMNSLKPDDTAVYYCASKGNPYRVPCSSYPKVNYWGQGTQVTVSS | high polyreactivity
22 | QVQLVESGGGLVQAGGSLRLSCAASGSTFYLYAMGWYRQAPGKERELVAAISWSGDSTYYADSVKGRFTISRDNAKNTVYLQMNSLKPEDTAVYYCAAEFYWGDLSYWGQGTQVTVSS | high polyreactivity
23 | QVQLVESAGGLVQAGGSLRLSCAASGSISAGNAMGWNRQAPGKERELVAAISGSGGSTYYADSVKGRFTISRYNAKNSVDLQMKSLKPEDTAVYYCAARGGYRLRYIPYVRYDYWGEGTQVTVSS | high polyreactivity
24 | QVQLVESGGGVVQAGGSLRLSCAASGRTFGWNTMGWYRQAPGKERELVAAISYSTGRTYYADSVKGRFTISRDNAKYTVYLQMNSLKPEDTAVYYCAATRPYRYNYWGQGTQVTVSS | high polyreactivity
25 | QDQLVESGGGLVQAGGSLRLSCAASGRTFYQYAMGWYRQAPGKERELVAAITFRGGSTNYADSVKGRFTISRDNAKNTVYLQMNSLKPEDTAVYYCAATVYGTVYKGRSQYEYGYWGQGTQVTVSS | high polyreactivity
26 | QVQLVESGGGLVQAGGSLRLSCAASGSTFSDYAMGWYRPEPGQERELVATITSTGDTNYADSVKGRFTISRDNAKNTVYLQMNSLKPEDTAVYYCAAQHKKYGKRGLWNNFGYWGQGTQVSVSS | low polyreactivity
27 | QFQLVESGGGLVQAGGSLRLSGAASGRTFRIYAMGWYRQAPGKDRELVAAITRSSGSTYYADSVKGRFTISRDNAKNTVYLQMNSLKPEDTAVYYCAAEALFEPIYDYWGQGTQVTVSS | high polyreactivity
28 | QVQLVESGGGLVQAGGSLRLCCAASGLTFAYYDMGWYRQAPGKERELVAAITSGGTTNYADSVKGRFTISRDNAKNTVYLQMNSLKPEDNAVYYCATDSWYGSWKYDYWGQGTQVTLSS | low polyreactivity
29 | QVQLVESGGGLVQAGGSLRLSCAASGSTYRYTMGWYRQAPGKERELVAAITGSAGRTYYADSVKGRFTISRDNAKNTVYLQMNSLKPEDTAVYYCNKVRPRKFWDYYYWGQGTQVTVSS | high polyreactivity
30 | QVQLQESGCGLVQAGGSLRLSCAASGNIFEADIMGWYHQAQGKERELVASITDGGSTNYADSVKGRFTINRDNAKNNVYLQMNSLKPEDTAVYSCAAIAYPDIPTYFDYDSDYFYWGQGTQVTVSS | high polyreactivity
31 | QVQLVESVGGLVQAGGSLRLSCAASGRTFRAYAMGWYRQEPGKERELVAAIRWGGGRTYYADSVKGRFTISRDNAKYTVYLQMNSLKPEDTAVYYCAADRTYDYDYWGQGTLVTVSS | high polyreactivity

Source: the nanobody polyreactivity screen of Harvey et al. (2022)
